Test results published in patent US12630600B2 (MEDIMMUNE LIMITED, priority 2022, dated 2026).
Starred links: 1 amine or outer side, 2 acyl side, 3 side chain; linkers in the order of their positions; H or OH if unused. Non-standard residues stand in square brackets, D forms with d. Groups on a side chain read outwards from the residue. No end group written: not given here. *: point of attachment. C20 diacid = O=C(O)CCCCCCCCCCCCCCCCCCC(=O)*; C18 diacid = O=C(O)CCCCCCCCCCCCCCCCC(=O)*; γGlu = O=C(O)[C@H](CCC(=O)[*:2])N[*:1]; αMeF = C[C@](N)(Cc1ccccc1)C(=O)O; AEEA = NCCOCCOCC(=O)O; Aib = CC(C)(N)C(=O)O

B1: Peptide 210 (peptide)
peptide: H[Aib]HGS[αMeF]TSDVSK[αMeF]LDSQAAK([AEEA-AEEA-γGlu-γGlu-C18 diacid])DFVEWIANT-NH2
modifications: N-terminus assumed
SMILES: CC[C@H](C)[C@H](NC(=O)[C@H](Cc1c[nH]c2ccccc12)NC(=O)[C@H](CCC(=O)O)NC(=O)[C@@H](NC(=O)[C@H](Cc1ccccc1)NC(=O)[C@H](CC(=O)O)NC(=O)[C@H](CCCCNC(=O)COCCOCCNC(=O)COCCOCCNC(=O)CC[C@H](NC(=O)CC[C@H](NC(=O)CCCCCCCCCCCCCCCCC(=O)O)C(=O)O)C(=O)O)NC(=O)[C@H](C)NC(=O)[C@H](C)NC(=O)[C@H](CCC(N)=O)NC(=O)[C@H](CO)NC(=O)[C@H](CC(=O)O)NC(=O)[C@H](CC(C)C)NC(=O)[C@](C)(Cc1ccccc1)NC(=O)[C@H](CCCCN)NC(=O)[C@H](CO)NC(=O)[C@@H](NC(=O)[C@H](CC(=O)O)NC(=O)[C@H](CO)NC(=O)[C@@H](NC(=O)[C@](C)(Cc1ccccc1)NC(=O)[C@H](CO)NC(=O)CNC(=O)[C@H](Cc1c[nH]cn1)NC(=O)C(C)(C)NC(=O)[C@@H](N)Cc1c[nH]cn1)[C@@H](C)O)C(C)C)C(C)C)C(=O)N[C@@H](C)C(=O)N[C@@H](CC(N)=O)C(=O)N[C@H](C(N)=O)[C@@H](C)O
B2: Peptide 221 (peptide)
peptide: H[Aib]HGS[αMeF]TSDVSK[αMeF]LDSR[Aib]AK([AEEA-AEEA-γGlu-γGlu-C20 diacid])DFVQ[Aib]IANT-NH2
modifications: N-terminus assumed
SMILES: CC[C@H](C)[C@H](NC(=O)C(C)(C)NC(=O)[C@H](CCC(N)=O)NC(=O)[C@@H](NC(=O)[C@H](Cc1ccccc1)NC(=O)[C@H](CC(=O)O)NC(=O)[C@H](CCCCNC(=O)COCCOCCNC(=O)COCCOCCNC(=O)CC[C@H](NC(=O)CC[C@H](NC(=O)CCCCCCCCCCCCCCCCCCC(=O)O)C(=O)O)C(=O)O)NC(=O)[C@H](C)NC(=O)C(C)(C)NC(=O)[C@H](CCCNC(=N)N)NC(=O)[C@H](CO)NC(=O)[C@H](CC(=O)O)NC(=O)[C@H](CC(C)C)NC(=O)[C@](C)(Cc1ccccc1)NC(=O)[C@H](CCCCN)NC(=O)[C@H](CO)NC(=O)[C@@H](NC(=O)[C@H](CC(=O)O)NC(=O)[C@H](CO)NC(=O)[C@@H](NC(=O)[C@](C)(Cc1ccccc1)NC(=O)[C@H](CO)NC(=O)CNC(=O)[C@H](Cc1c[nH]cn1)NC(=O)C(C)(C)NC(=O)[C@@H](N)Cc1c[nH]cn1)[C@@H](C)O)C(C)C)C(C)C)C(=O)N[C@@H](C)C(=O)N[C@@H](CC(N)=O)C(=O)N[C@H](C(N)=O)[C@@H](C)O
B3: Peptide 222 (peptide)
peptide: H[Aib]HGS[αMeF]TSDVSK[αMeF]LDSRAAKDFVQ[Aib]IANT-NH2
modifications: not fully specified (residue 20)
B4: Peptide 227 (peptide)
peptide: H[Aib]HGS[αMeF]TSDVSK[αMeF]LDSRAAK([AEEA-AEEA-γGlu-C18 diacid])D[αMeF]VE[Aib]IANT-NH2
B5: Peptide 228 (peptide)
peptide: H[Aib]HGS[αMeF]TSDVSK[αMeF]LDSRAAKD[αMeF]IA[Aib]IANT-NH2
modifications: not fully specified (residue 20)
B6: Peptide 225 (peptide)
peptide: H[Aib]HGS[αMeF]TSDVSK[αMeF]LDSRAAK([AEEA-AEEA-γGlu-C18 diacid])D[αMeF]VQ[Aib]IANT-NH2
modifications: N-terminus assumed
SMILES: CC[C@H](C)[C@H](NC(=O)C(C)(C)NC(=O)[C@H](CCC(N)=O)NC(=O)[C@@H](NC(=O)[C@](C)(Cc1ccccc1)NC(=O)[C@H](CC(=O)O)NC(=O)[C@H](CCCCNC(=O)COCCOCCNC(=O)COCCOCCNC(=O)CC[C@H](NC(=O)CCCCCCCCCCCCCCCCC(=O)O)C(=O)O)NC(=O)[C@H](C)NC(=O)[C@H](C)NC(=O)[C@H](CCCNC(=N)N)NC(=O)[C@H](CO)NC(=O)[C@H](CC(=O)O)NC(=O)[C@H](CC(C)C)NC(=O)[C@](C)(Cc1ccccc1)NC(=O)[C@H](CCCCN)NC(=O)[C@H](CO)NC(=O)[C@@H](NC(=O)[C@H](CC(=O)O)NC(=O)[C@H](CO)NC(=O)[C@@H](NC(=O)[C@](C)(Cc1ccccc1)NC(=O)[C@H](CO)NC(=O)CNC(=O)[C@H](Cc1c[nH]cn1)NC(=O)C(C)(C)NC(=O)[C@@H](N)Cc1c[nH]cn1)[C@@H](C)O)C(C)C)C(C)C)C(=O)N[C@@H](C)C(=O)N[C@@H](CC(N)=O)C(=O)N[C@H](C(N)=O)[C@@H](C)O
B7: Peptide 205 (peptide)
peptide: H[Aib]QGT[αMeF]TSDVSK[αMeF]LDSRAAK([AEEA-AEEA-γGlu-C18 diacid])DFVQWIANT-NH2
modifications: N-terminus assumed
SMILES: CC[C@H](C)[C@H](NC(=O)[C@H](Cc1c[nH]c2ccccc12)NC(=O)[C@H](CCC(N)=O)NC(=O)[C@@H](NC(=O)[C@H](Cc1ccccc1)NC(=O)[C@H](CC(=O)O)NC(=O)[C@H](CCCCNC(=O)COCCOCCNC(=O)COCCOCCNC(=O)CC[C@H](NC(=O)CCCCCCCCCCCCCCCCC(=O)O)C(=O)O)NC(=O)[C@H](C)NC(=O)[C@H](C)NC(=O)[C@H](CCCNC(=N)N)NC(=O)[C@H](CO)NC(=O)[C@H](CC(=O)O)NC(=O)[C@H](CC(C)C)NC(=O)[C@](C)(Cc1ccccc1)NC(=O)[C@H](CCCCN)NC(=O)[C@H](CO)NC(=O)[C@@H](NC(=O)[C@H](CC(=O)O)NC(=O)[C@H](CO)NC(=O)[C@@H](NC(=O)[C@](C)(Cc1ccccc1)NC(=O)[C@@H](NC(=O)CNC(=O)[C@H](CCC(N)=O)NC(=O)C(C)(C)NC(=O)[C@@H](N)Cc1c[nH]cn1)[C@@H](C)O)[C@@H](C)O)C(C)C)C(C)C)C(=O)N[C@@H](C)C(=O)N[C@@H](CC(N)=O)C(=O)N[C@H](C(N)=O)[C@@H](C)O
B8: Peptide 215 (peptide)
peptide: H[Aib]HGS[αMeF]TSDVSK[αMeF]LDSRAAK([AEEA-AEEA-γGlu-C20 diacid])D[αMeF]VQWIANT-NH2
modifications: N-terminus assumed
SMILES: CC[C@H](C)[C@H](NC(=O)[C@H](Cc1c[nH]c2ccccc12)NC(=O)[C@H](CCC(N)=O)NC(=O)[C@@H](NC(=O)[C@](C)(Cc1ccccc1)NC(=O)[C@H](CC(=O)O)NC(=O)[C@H](CCCCNC(=O)COCCOCCNC(=O)COCCOCCNC(=O)CC[C@H](NC(=O)CCCCCCCCCCCCCCCCCCC(=O)O)C(=O)O)NC(=O)[C@H](C)NC(=O)[C@H](C)NC(=O)[C@H](CCCNC(=N)N)NC(=O)[C@H](CO)NC(=O)[C@H](CC(=O)O)NC(=O)[C@H](CC(C)C)NC(=O)[C@](C)(Cc1ccccc1)NC(=O)[C@H](CCCCN)NC(=O)[C@H](CO)NC(=O)[C@@H](NC(=O)[C@H](CC(=O)O)NC(=O)[C@H](CO)NC(=O)[C@@H](NC(=O)[C@](C)(Cc1ccccc1)NC(=O)[C@H](CO)NC(=O)CNC(=O)[C@H](Cc1c[nH]cn1)NC(=O)C(C)(C)NC(=O)[C@@H](N)Cc1c[nH]cn1)[C@@H](C)O)C(C)C)C(C)C)C(=O)N[C@@H](C)C(=O)N[C@@H](CC(N)=O)C(=O)N[C@H](C(N)=O)[C@@H](C)O
B9: Peptide 213 (peptide)
peptide: H[Aib]HGS[αMeF]TSDVSK[αMeF]LDSRAAK([AEEA-AEEA-γGlu-γGlu-C20 diacid])DFVEWIANT-NH2
modifications: N-terminus assumed
SMILES: CC[C@H](C)[C@H](NC(=O)[C@H](Cc1c[nH]c2ccccc12)NC(=O)[C@H](CCC(=O)O)NC(=O)[C@@H](NC(=O)[C@H](Cc1ccccc1)NC(=O)[C@H](CC(=O)O)NC(=O)[C@H](CCCCNC(=O)COCCOCCNC(=O)COCCOCCNC(=O)CC[C@H](NC(=O)CC[C@H](NC(=O)CCCCCCCCCCCCCCCCCCC(=O)O)C(=O)O)C(=O)O)NC(=O)[C@H](C)NC(=O)[C@H](C)NC(=O)[C@H](CCCNC(=N)N)NC(=O)[C@H](CO)NC(=O)[C@H](CC(=O)O)NC(=O)[C@H](CC(C)C)NC(=O)[C@](C)(Cc1ccccc1)NC(=O)[C@H](CCCCN)NC(=O)[C@H](CO)NC(=O)[C@@H](NC(=O)[C@H](CC(=O)O)NC(=O)[C@H](CO)NC(=O)[C@@H](NC(=O)[C@](C)(Cc1ccccc1)NC(=O)[C@H](CO)NC(=O)CNC(=O)[C@H](Cc1c[nH]cn1)NC(=O)C(C)(C)NC(=O)[C@@H](N)Cc1c[nH]cn1)[C@@H](C)O)C(C)C)C(C)C)C(=O)N[C@@H](C)C(=O)N[C@@H](CC(N)=O)C(=O)N[C@H](C(N)=O)[C@@H](C)O
B10: Peptide 233 (peptide)
peptide: H[Aib]HGS[αMeF]TSDVSK[αMeF]LDSRAAK([AEEA-AEEA-γGlu-γGlu-C20 diacid])D[αMeF]VQ[Aib]IANTGG-NH2
modifications: N-terminus assumed
SMILES: CC[C@H](C)[C@H](NC(=O)C(C)(C)NC(=O)[C@H](CCC(N)=O)NC(=O)[C@@H](NC(=O)[C@](C)(Cc1ccccc1)NC(=O)[C@H](CC(=O)O)NC(=O)[C@H](CCCCNC(=O)COCCOCCNC(=O)COCCOCCNC(=O)CC[C@H](NC(=O)CC[C@H](NC(=O)CCCCCCCCCCCCCCCCCCC(=O)O)C(=O)O)C(=O)O)NC(=O)[C@H](C)NC(=O)[C@H](C)NC(=O)[C@H](CCCNC(=N)N)NC(=O)[C@H](CO)NC(=O)[C@H](CC(=O)O)NC(=O)[C@H](CC(C)C)NC(=O)[C@](C)(Cc1ccccc1)NC(=O)[C@H](CCCCN)NC(=O)[C@H](CO)NC(=O)[C@@H](NC(=O)[C@H](CC(=O)O)NC(=O)[C@H](CO)NC(=O)[C@@H](NC(=O)[C@](C)(Cc1ccccc1)NC(=O)[C@H](CO)NC(=O)CNC(=O)[C@H](Cc1c[nH]cn1)NC(=O)C(C)(C)NC(=O)[C@@H](N)Cc1c[nH]cn1)[C@@H](C)O)C(C)C)C(C)C)C(=O)N[C@@H](C)C(=O)N[C@@H](CC(N)=O)C(=O)N[C@H](C(=O)NCC(=O)NCC(N)=O)[C@@H](C)O

The binders below were run against human GLP-1 receptor (human, UniProt P43220) (assay: cell-based or functional assay).
In the case of B1, the “hGLP-1R EC50 (pM)” value is reported as 156 pM.
B2 was tested, and the “hGLP-1R EC50 (pM)” value was 122 pM.
For B3, the “hGLP-1R EC50 (pM)” value was 151 pM.
For B4, the “hGLP-1R EC50 (pM)” value was 70.5 pM.
In the case of B5, the “hGLP-1R EC50 (pM)” value is reported as 200 pM.
B6 was tested, and the “hGLP-1R EC50 (pM)” value was 34.9 pM.
B7 was tested, and the “hGLP-1R EC50 (pM)” value was 29.9 pM.
In the case of B8, the “hGLP-1R EC50 (pM)” value is reported as 7620 pM.
B9 was tested, and the “hGLP-1R EC50 (pM)” value was 534 pM.

Each binder was assayed against human glucagon receptor (human, UniProt P47871) (assay: cell-based or functional assay).
With B1 the “hGluc-R EC50 (pM)” value was 93.7 pM.
B2 was tested, and the “hGluc-R EC50 (pM)” value was 123 pM.
For B3, the “hGluc-R EC50 (pM)” value was 244 pM.
In the case of B4, the “hGluc-R EC50 (pM)” value is reported as 27.2 pM.
B5 was tested, and the “hGluc-R EC50 (pM)” value was 177 pM.
With B6 the “hGluc-R EC50 (pM)” value was 145 pM.
For B7, the “hGluc-R EC50 (pM)” value was 8.14 pM.
In the case of B8, the “hGluc-R EC50 (pM)” value is reported as 2610 pM.
For B9, the “hGluc-R EC50 (pM)” value was 141 pM.
With B10 the “hGluc-R EC50 (pM)” value was 407 pM.
